Laboratory results taken from publication PMC7083883, “The cryo-EM structure of the SNX–BAR Mvp1 tetramer” (Nature Communications, 2020).

Key:
Mvp1 = molecular target: T1, Mvp1 (Saccharomyces cerevisiae, UniProt P40959); assay: liposome sedimentation, SDS-PAGE; format: binding; conditions: 5% PI3P in 95% DOPS liposomes (100 nm, 0.1 mg/ml); 1.2 µM protein; 20 mM Tris pH 7.5, 250 mM NaCl; 21 °C; DOPS-only liposomes as control
T1 construct: full-length, codons 1-511; E. coli; N-terminal His6-thrombin fusion or C-terminal MBP fusion cut off with PreScission; tetramer
T1 sequence (P40959 1-511): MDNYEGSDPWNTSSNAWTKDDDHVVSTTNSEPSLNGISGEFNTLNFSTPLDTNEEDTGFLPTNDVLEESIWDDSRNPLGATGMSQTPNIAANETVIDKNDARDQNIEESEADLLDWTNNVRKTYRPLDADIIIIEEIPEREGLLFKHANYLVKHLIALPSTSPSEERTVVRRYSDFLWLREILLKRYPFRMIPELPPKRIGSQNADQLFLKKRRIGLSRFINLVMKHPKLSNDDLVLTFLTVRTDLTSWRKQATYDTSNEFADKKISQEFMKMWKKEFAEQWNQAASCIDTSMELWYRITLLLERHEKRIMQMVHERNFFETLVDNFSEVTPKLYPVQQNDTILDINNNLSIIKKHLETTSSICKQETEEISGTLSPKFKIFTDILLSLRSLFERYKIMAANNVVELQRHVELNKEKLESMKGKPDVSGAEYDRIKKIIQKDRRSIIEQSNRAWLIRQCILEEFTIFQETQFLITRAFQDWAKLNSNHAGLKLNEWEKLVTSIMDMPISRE

[1] = molecular target: Mvp1 with an engineered PreScission site after residue 99, after cleavage (N-terminal sequence removed) (S. cerevisiae) (UniProt P40959); assay: SEC-MALS; Superdex 200 10/300 GL, 20 mM TRIS/Cl pH 7.4, 250 mM NaCl unless stated (full-length Mvp1 also at 50 and 150 mM NaCl), 1.93 mM beta-mercaptoethanol; 500 ul of 20-21.2 uM protein injected (14 uM for Mvp1 Δ2-78); 0.3 ml/min
[2] = molecular target: the molecule itself; assay: as above
[3] = molecular target: the molecule itself; assay: cryo-EM structure; 2d and 3d classification of single particles of Mvp1 Mut1, ~5 uM protein, intermediate resolution (~7.7-8.2 Å)

Molecule | stoichiometry N [2] | other results
CCCCCCCC/C=C\CCCCCCCC(=O)OC[C@H](COP(=O)(O)O[C@@H]1[C@H](O)[C@H](OP(=O)(O)O)[C@@H](O)[C@H](O)[C@H]1O)OC(=O)CCCCCCC/C=C\CCCCCCCC [PI3P] |  | liposome sedimentation, SDS-PAGE (Mvp1): purified Mvp1, like SNX8 and several other SNX–BARs, bound to liposomes containing PI3P
Mvp1 with an engineered PreScission site after residue 99, after cleavage (N-terminal sequence removed) (from UniProt P40959 100-511) (domain or fragment) |  | stoichiometry N [1]: 2
Mvp1 Δ2-100 (domain or fragment, S. cerevisiae, UniProt P40959 1-511, looked up, Mvp1, S. cerevisiae, codons 1-511 lacking residues 2-100; The purification told for this construct is that of the C-terminal MBP fusion, cleaved with PreScission; residues of the cleavage site probably remain at the C-terminus (surmised); also called Mvp1 lacking its N-terminus; source: E. coli BL21-Codon Plus(DE3)-RIPL, purified (amylose resin, anion exchange, SEC, PreScission cleavage, Superdex …)) MARDQNIEESEADLLDWTNNVRKTYRPLDADIIIIEEIPEREGLLFKHANYLVKHLIALPSTSPSEERTVVRRYSDFLWLREILLKRYPFRMIPELPPKRIGSQNADQLFLKKRRIGLSRFINLVMKHPKLSNDDLVLTFLTVRTDLTSWRKQATYDTSNEFADKKISQEFMKMWKKEFAEQWNQAASCIDTSMELWYRITLLLERHEKRIMQMVHERNFFETLVDNFSEVTPKLYPVQQNDTILDINNNLSIIKKHLETTSSICKQETEEISGTLSPKFKIFTDILLSLRSLFERYKIMAANNVVELQRHVELNKEKLESMKGKPDVSGAEYDRIKKIIQKDRRSIIEQSNRAWLIRQCILEEFTIFQETQFLITRAFQDWAKLNSNHAGLKLNEWEKLVTSIMDMPISRE | 2 | 
Mvp1 Δ2-78 (domain or fragment, S. cerevisiae, UniProt P40959 1-511, looked up, source: E. coli BL21-Codon Plus(DE3)-RIPL, purified; not shown: His6 (pET-15b construct); MBP (pMW-variant construct; alternative to the His6 construct), C-terminal, cleaved) MGATGMSQTPNIAANETVIDKNDARDQNIEESEADLLDWTNNVRKTYRPLDADIIIIEEIPEREGLLFKHANYLVKHLIALPSTSPSEERTVVRRYSDFLWLREILLKRYPFRMIPELPPKRIGSQNADQLFLKKRRIGLSRFINLVMKHPKLSNDDLVLTFLTVRTDLTSWRKQATYDTSNEFADKKISQEFMKMWKKEFAEQWNQAASCIDTSMELWYRITLLLERHEKRIMQMVHERNFFETLVDNFSEVTPKLYPVQQNDTILDINNNLSIIKKHLETTSSICKQETEEISGTLSPKFKIFTDILLSLRSLFERYKIMAANNVVELQRHVELNKEKLESMKGKPDVSGAEYDRIKKIIQKDRRSIIEQSNRAWLIRQCILEEFTIFQETQFLITRAFQDWAKLNSNHAGLKLNEWEKLVTSIMDMPISRE | 2 | 
Full-length Mvp1 (codons 1-511) (natural protein, S. cerevisiae, UniProt P40959 1-511, looked up, Mvp1, S. cerevisiae sorting nexin with PX and BAR domains, codons 1-511, amplified from genomic DNA of W303A/alpha diploids; Two purification strategies: N-terminal His6 fusion with thrombin site (no cleavage described) or C-terminal MBP fusion cleaved with PreScission; also called wild type; SNX-BAR Mvp1; source: E. coli BL21-Codon Plus(DE3)-RIPL, purified (Ni-IDA or amylose resin, anion …)) MDNYEGSDPWNTSSNAWTKDDDHVVSTTNSEPSLNGISGEFNTLNFSTPLDTNEEDTGFLPTNDVLEESIWDDSRNPLGATGMSQTPNIAANETVIDKNDARDQNIEESEADLLDWTNNVRKTYRPLDADIIIIEEIPEREGLLFKHANYLVKHLIALPSTSPSEERTVVRRYSDFLWLREILLKRYPFRMIPELPPKRIGSQNADQLFLKKRRIGLSRFINLVMKHPKLSNDDLVLTFLTVRTDLTSWRKQATYDTSNEFADKKISQEFMKMWKKEFAEQWNQAASCIDTSMELWYRITLLLERHEKRIMQMVHERNFFETLVDNFSEVTPKLYPVQQNDTILDINNNLSIIKKHLETTSSICKQETEEISGTLSPKFKIFTDILLSLRSLFERYKIMAANNVVELQRHVELNKEKLESMKGKPDVSGAEYDRIKKIIQKDRRSIIEQSNRAWLIRQCILEEFTIFQETQFLITRAFQDWAKLNSNHAGLKLNEWEKLVTSIMDMPISRE | 4 | 
Mvp1 198KRI→AAA (natural protein, S. cerevisiae, UniProt P40959 1-511, looked up, Mvp1, S. cerevisiae, codons 1-511 with residues 198-200 KRI changed to AAA in the PX PPII loop; also called Mut1; Mvp1 Mut1; source: E. coli BL21-Codon Plus(DE3)-RIPL, purified; not shown: His6 (pET-15b construct); MBP (pMW-variant construct; alternative to the His6 construct), C-terminal, cleaved) MDNYEGSDPWNTSSNAWTKDDDHVVSTTNSEPSLNGISGEFNTLNFSTPLDTNEEDTGFLPTNDVLEESIWDDSRNPLGATGMSQTPNIAANETVIDKNDARDQNIEESEADLLDWTNNVRKTYRPLDADIIIIEEIPEREGLLFKHANYLVKHLIALPSTSPSEERTVVRRYSDFLWLREILLKRYPFRMIPELPPAAAGSQNADQLFLKKRRIGLSRFINLVMKHPKLSNDDLVLTFLTVRTDLTSWRKQATYDTSNEFADKKISQEFMKMWKKEFAEQWNQAASCIDTSMELWYRITLLLERHEKRIMQMVHERNFFETLVDNFSEVTPKLYPVQQNDTILDINNNLSIIKKHLETTSSICKQETEEISGTLSPKFKIFTDILLSLRSLFERYKIMAANNVVELQRHVELNKEKLESMKGKPDVSGAEYDRIKKIIQKDRRSIIEQSNRAWLIRQCILEEFTIFQETQFLITRAFQDWAKLNSNHAGLKLNEWEKLVTSIMDMPISRE |  | stoichiometry N [3]: 2
